This data set can be described thus: protease stability score; higher = more stable; yeast display proteolysis, trypsin and chymotrypsin.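 Also: relative to predicted unfolded state with 0 unfolded-like and 1 meaning tenfold more protease.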
“DEDLKLMLTLTHLWLHAVATGDEDLQTKLADPDVRFIFNGRIIHGMDEWRRFLKELRIKIEDTDHKDSDLYGEKLHIDGHIVIRIHVGEKNERIDTRVHIHVLVINGKLKSVKIETR” came in with a protease stability score of 2.13.
The result for “DEDLQFLKNFKEEWIKNLRTGDEDAVQKLADPNVRIDIDGKELHGREVMLEMLHQETNELRLKDVKDKHMTVQGDKIHWDGILIITINGKEIRRRVHIFVQKVDGRWVIESEIHR” reads 0.942; that for “DEDLRMAFEMVRISDHEIDTGDEDSWTKLFDPHVRIRFPGRMLHGREYLHYVLKHARIHYDDSELKDVKFVGNKLLVDVHVRGTFFIDGQNIHTEVKRIHMIEKYNGKWKTTEMEIK”, 0.469.
The result for “DEDLSRNFHQFIEALKQNDTDRMKELIDPNARMRYGDKQLHGRENILNYWKKLNDQARVDLDLKSVRNDENHIRYNYKMRVHVNGRPVEDTATAEIRATNGRIVDIYIDFDPEKLRQIES” reads 2.16; that for “DEDMDISKHWAELWMKLEKTGDEEELRKLMDPHARIDFNGVDIHGMEFWLELLKREKDKFKNVKITLEEFRIYGDYVHFHVIIHQGDYHLRIEITIIVVNGRHKELIIRIK”, -0.059; that for “DEDMELVLKWVHEFAEMFETGNEHELLRMLDPHVRLEYGEKEIHGREDITRFWEEKIRKLGIKHIRVHIRDARIQGEKLHLDTELKLDYNGKTDHERYIIIIIKINGKWSIKSFQVE”, 1.55.
Take “DEDMKIASHVFHLIMHILHTGDEDSLKELADPDYRWLFNGVSNVGREESVRRLEEIRLEMKDTKTRSAKIYDGRIELHSHVRGNLNVNGVEIEHSVRSRLFVSKVDGKWLVEHIEIG”: the protease stability score is -0.045.
In turn, “DEDMREAVKIAHRWLQHMTTGDEESIQSLADPHTKILFNGRELHGRHVITHLIREIRIKYTHLEHRDWRVVDGQLHLDFREDLRIEFDGQVRRIEIESHFMIIKINGRWFVHEVHLR” showed a protease stability score of 0.636.
“DEDNEYVEYMHELIARALITGDFELWLKLMDPNTRMQIDGKEFHGREEFRKRLEHLRIDRVRYNVRHFHIIGDKLHVKSEFEIDGQIDGVDRHFSVEIRVLIWKINGRWILRDETTH” came in with a protease stability score of 1.69.
“DEDNREIKHAIHLLLTAFLTGNEDWLKELADPNVRILFNGRLFHGREHFLKFLLKFLRDYGIDHNHIQHSHLEIQGNFVHTHLHLEIDVNGRRQEFELRVISEKINGRWHLRELEVHIR” displayed a protease stability score of 2.43.
In turn, “DEDQEEANHLIDLFIASLNTGDWEIIDHMADPHVKFRSVVNGKREKHIGREEMIRWFEEIEERFGYENFHVRYQRFEVQGEKMNTDITIEWNGRRFRSIILLHVFNGKLKSMEIIDI” yielded a protease stability score of 1.25.
As to “DEDQEEMYKALNHLLTLLKTGDEHVLKRLIDPHVRVEIDGKDRHGMSFLLEIIKEELIRIDHIKDFRIHHVEMVGDKAENHVKLIGEWNGKEFRLRMHVYSWKFDGKWIMKSIKIE”, the protease stability score was 1.75.
Regarding “DEDQEIAEHVAELILELLLTGDEEKFLTLLDPNVRIIVGDKELHGREDWMRLFRHMRVRHVELRKIEVQGEKVHVDSRLDVEFNGRRRNINANWIVLKVNGRWTIRSVELE”, the protease stability score turned out to be 2.17.
The sequence “DEDQEIVERFTSLINHLILTGDEEEMKKLLDPNARWIYGDKHIHGRDEFIELLRQIKNVKTRFYIRHIDVINGKLVMHVEIELEFNGKRDHLRQIIISEKVDGRWRAKEFETR” returned a protease stability score of 0.66.
As to “DEDQKAATRFTELLVRLLFTGDEEMWLQLADPRMILDFENHSEHGMKLVVKLLHETIERRGMRIDDMHHTHIEFQGEWVRVHVRVHERIGDKRISVEVEYKSLKVNGRWILHEIHIH”, the protease stability score was 0.372.
Consider “DEDQKEAEDMAELITKLINTGDEEHWLDRADPHMKVDIDGVESVGREEIERLLHELIRKWGVSKIESRNKHVTIINGRVHFRINIHVNGQEYLLILINDKVDGRWRVQETRVHIT”, for which the protease stability score was determined as 1.63.
In turn, “DEDQKETEEAIKELEKLSKTGNEHDFLRYFDPNMRVEIGDKEIWGRERALEIFHELGVKHIEVKRVDVQGDKIRMDTLLRVNGQELHTQVVALKINGQWILESYRVE” came in with a protease stability score of 1.09.
In turn, “DEDQKFAMEVLELLVRAKVTGNEELLEKLLDPHTRVDINGREIHGWEEMLRILHEWRIRDLEFRVRDIHIIDGRLKIDGEERVEGEIDGRNMEIKYRTEVYYEKINGRWIVREMSVR” yielded a protease stability score of 1.75.
The value for “DEDREAAEFVVEHLLRALSTGNEEEFLSLLDPTVKWEIDGREYHGRELVSKILHEIRIKTTEFRSTRHEYQGDYLKLDGILHTTVEIDGKRKHLDVNLHMLILKYDGRWLLKSMSVR” was 1.53; that for “DEDREAIELLVRLLITAHETGDEKILWDLMDPNVRYHQGNFELHGREEIMELESRLRKHLGINHISFRLHDMQHIGDKLILHGSLMFRIGDKEHHTEVDIIVIKINGKWLIESIFIR” was 1.57; that for “DEDREAMEELVRRTLKASSTGDEELSDQLMDPNTRIEVNGKHLIGREMWIKFLVELRIIFHEVHVHDVRSVGDKVDADVHVIFELRINGKRIDIETRVTFYFRKINGRWLVKSIRFE” was 1.07.
In the case of “DEDREDARKIFHDFIRALNTGDEDTLAELLDPNTKIHIGEFNLIGMERVREWLQRVDHTHTHIKVRRVDVVNGQIIMDTETEIHIHIGDFTLEIQTRTEMVILKINGRWFIKRVNLI”, the protease stability score stood at 1.72.
“DEDREDVKKYIEDLFHHLETGDFKEIEKNFDPNVRIFIDGRTIHGREEMVRWAEEMRYKLHEVRLHEVETQGEKIHIDLEIDIEIRIGDKRRRIRTRVIIFARKINGRWYVHQTDFR” registered a protease stability score of 2.71.
Sequence “DEDREEAIKTVEETVELIATGDFEKFEELVDPNVRIDVNGVDVIGREDWRRRVEEIRISMRDSDIKRVRSVNGVMHVDGRIELEVHVNGKTKNVNLRTHWYIVKINGRWLIHSVHFV” yielded a protease stability score of 1.99.
“DEDREFAERVMKLLLHSLITGDFRRIHELADPHMRLHQGDFNIIGWDTIYEIMFRLGFRLDDFRIEHMDVVDGRVFLQGRSDGTINGRRTRTNVNIIIEKIDGRWYLRENEVR” gave a protease stability score of 1.08.
The sequence “DEDREFLIEMIELFMKFLLTGDWEQFAHLADPNDRFNVNGRDNHGREVWIKEVEEMRIHSLHIEDQDAFNGVIHVDFRVEGHFDGRTHIQKVEIHIRIVNGRVKSVEHHIH” displayed a protease stability score of 0.575.
The value for “DEDREHVERIVDILIHSFKTGDESFLENYLDPNARLEVGDKTHHGREEVKKLVIRWWHELGIKHVHVDKKTTIDGRIIIHLTILFNGRRFETELIWVIVDGVINKVDIRIQER” was 1.45; that for “DEDREHVKWMIEKEIHAWRTGDEDELRKMLDPNVKFEQGDKRIHGREILMERMRKLGADHVEFQLHDIELQGEKVLLFIELRIHVNGRDIRLEIIIYLDKVNGQWHVRHYEIR” was 0.745.
The value for “DEDREHVLKVTRLIWRAWMTGDFERISHLIDPNAKIDINGVDLHGREKLRHHLERVDYMHLESEHERRIDIIGDFVRIEFRFTVILIVNGQEVRDTTHVEIRARIVNGRLTEVYVHEH” was 1.55.
For “DEDREIAERFLRRWSHDTLTGDEDSLRDMVDPNVRLEYGDFTFHGREEWLKFFREIRVEDSHVHHMHVFNGQARIKLDFRVRFNGKELRTKVTLSVDKVDGRWIIRSIHFE”, the protease stability score amounted to 1.64.
“DEDREIMERFIHILAEVWRTGDEHSLERLFDPNYKTLYDGRDVHGRETHIEILRTLGLERIEVRIKRFRVQGDKLHVNVELDVNGRTTEVEIRWRKIDGRWINHDMEIE” showed a protease stability score of 1.39.
“DEDREMLEELTRRLAHSVETGDEDHHSHLADPNTRETIHINGRTFEHHGWEIWSELLTRLGADHMHLDRVHVVNGRVEIRSRVHVGDKEYKVHILMVVINGRLKEVSVHIH” came in with a protease stability score of 0.721.
The result for “DEDREMVEEVIRERLEDLKTGDWKKLADLADPHVRLDVGDKEYHGREEFTKTFTDILRILGHSNIQTDLKHIDFFDGRLDVHQTVHIGDKTIHHQILFHKFDGKWKITEMRITIR” reads 0.928; that for “DEDREQAEEVIRSITEAMQTGDEHLWERMIDPNVRVIIDGRTYHGRLAWDLFRERYDVVHSSDSRIRHLRTYNGRVEVITQLRLDVEINGQRFETSMETHLIVLKFNGKWTVRRMEIH”, 1.67; that for “DEDREQYREIMSHIWHSIHTGDEETQEDMADPDARFIIGDKTFIGWKQFYEKLREIRIHIDHVHIRHIEVQGDKFRVEFQIHRTIIYNGRNLHETTEAETHLHVVNGRLHSWSFRVR”, 0.885.
The sequence “DEDRERSEEIAKLILRSWLTGDERLLEELFDPHARVHINGKEFHGMEKFTEFSRHIRMDRVIIHDVKLIGDKMHIEQEIIITFDGRHLHVRSIIIVLKVNGQWVSRSLEIH” had a protease stability score of 1.16.
“DEDRERSKKEFDTLVKSELTGDEDSYRRMADPDTRLVVGDKEYHGRSAMRYFLRQVDHMEHVIIRRVEYQGDYAHFDITVHGDINGRRDTVHFHLVMYKIDGRWVVHELIIK” yielded a protease stability score of 1.32.
For the sequence “DEDRESARWLFEIHSRVFETGDEDSLHRLFDPNARFDINGREVHGMDLWIHLLKHIRVSVKDMKIRRHKSVNGRLETDYDSTLSFHVGDKTIELEVRVILVSHKVNGRWEIKEEIVH”, the protease stability score was 1.24.
The value for “DEDRESEEKAIKTWWHMVETGDEKLFKKLADPDTKMVINGVEKHGMETVHEFLNRVDHIRQFDIEDHRFYNGRLELHIRVDVEFNGRRHETERRVIASKVNGRWLLKEVIVH” was 0.689.
“DEDRESFEEVSRLLMEDIKTGDEDSWKKLADPHDRIVVGDKTSIGMETSIHLLRVLIHHIRFKDSKIKDIHSQGDKLHLETHLHGEVNGVEYHTFSHIVVRKVDGKWHLESVIII” yielded a protease stability score of 1.
“DEDRESMLEHFRLLVEQTKTGNEESTEENIDPHVRLIFNGQEYHGRHEVARYLVEIWRRVDHVRIHLTHMEVYDGVMEIHGQYHLDFDGRHVTHEFRIIFTKVDGRWRIHELRVQ” gave a protease stability score of 1.38.
Turning to “DEDREVAENMVRLFIHFLLTGNEERLNQYFDPHTLLIVGDKRYHGMEESNKWIVELWTERVEIRHIEVDYYGDKVHATISGHHVGIVDGKRIETQVDFHFRIDKIDGRWVAREVEIRHD”, the protease stability score stood at 2.06.
On to “DEDREWIERFNRILIESLTTGDEHTLKELIDPNARLVINGRDIHGREEFVRLLSEMGVKHFHVHDVKVVGNKAVTRGILYFNGREYDVDVFTRKIDGRWLYESLEVK”, for which the protease stability score was 2.02.
“DEDRFETELAVDLWLRTLETGDEHFLHRLADPRVQLEYGNFHYHGRHEFLHWFHDLKRKYKNLRVDIRDVRDIDGRIILHTELKQGDKHIESKVYMEKYDGRWLIKSYEIR”: the protease stability score was 0.971.
Turning to “DEDRHDVKRWLEFLVKLMETGDEEVLRTLADPNTRVDINGRDNHGWESVVTVLRELGANHIHHIEIKHLHIINGRVHIDMRVHRIQGDKTLDFDIHLHANKYNGRWHLKSVQIH”, the protease stability score is 1.24.
In turn, “DEDRHYIEQALEILEHNIQTGNWEIIARLLDPNMRLHIGDKDIHGREESADIIRHWIHRFPNLRVRIDHFEIYGNKVIFRGTMDFDGQRHDISIFSHKVNGRWLIKSIEYR” returned a protease stability score of 1.59.
The result for “DEDRIISEEAAKLFLHLLLTGDEKVFDEYLDPRTRLIIGDKEFIGRETLRKTMQEFRHKAGIDHMHIRDSRIELIDGRVVQHLEIHVRFNGKSEDRVIHVFIEKINGRWHIHFVEVKID” reads 1.53.

Source of the values: the NTF2 design screens of Basanta et al. (2020).
